# Reference: patent US10858422B2, “Methods for treating systemic lupus erythematosus with an anti-apolipoprotein B antibody” (Abcentra, LLC, priority 2016, dated 2020)
# Where “and” joins values, the source holds several entries; their conditions need not be identical. Identical values can stand only once. Like-named read-outs stand apart in the source and are kept apart here.
# Tests used:
# [1] = in vivo
# [2] = tested on: SLE ApoE−/− mice; experiment: Passive immunization: spleen cells and plasma biomarkers; type: in vivo, mouse
# Experimental: (§1) SLE ApoE^−/− mice were treated with three weekly injections of either orticumab or an irrelevant antibody as control. Six-week old mice were fed with HFD, and were injected at weeks 18, 19 and 20 with orticumab (one dose of 1 mg per week, IP injections), and sacrificed for analysis in week 22. Plaque area and composition were determined in the aortic root.
# [3] = tested on: SLE ApoE−/− mice; experiment: Passive immunization: plaque area and composition in aortic root, flat preps of aorta; type: in vivo, mouse
# Experimental: as §1
# [4] = tested on: PBMC isolated from SLE patients; experiment: Uptake of DiI-oxLDL and cytokine release in SLE PBMC with MDA.P45-IgG; type: cell-based, human; conditions: 10 μg/ml antibody with 10 μg/ml labelled oxLDL, 24 hours
# Experimental: Flow cytometry analysis of PBMCs stimulated with DIloxLDL and MDA.P45-IgG antibody: PBMCs were slowly thawed in 37° C. PBS with 2% autologous serum, counted and seeded into appropriate medium and conditions. Medium for each stimuli condition was prepared from complete RPMI (cRPMI, 10 U/ml Penicillin/streptomycin, 1% L-glutamine, 1% sodium pyruvate, 1% Hepes and 0.1% mercaptoethanol) with 2% autologous serum (Sigma Aldrich) including the respective stimuli conditions and pre-incubated in 37° C. for 1 h before stimulating the cells with it. Condition 1; unstimulated, condition 2; 10 μg/ml Dil-OxLDL (Thermo Scientific), condition 3; 10 μg/ml Dil-OxLDL with MDA.P45-IgG. (Dil-OxLDL refers to oxidized LDL complexed with Dil dye).
# At time of experiment, cells were slowly thawed in 37° C. PBS containing 2% autologous serum. Cells were counted and all cells obtained were divided into three wells for respective condition mentioned above for 24 h at 37° C. in 5% CO2. After 24 h stimulation, medium was harvested and kept in −80° C. until cytokine analysis. Cells were washed twice in FACS buffer (PBS 1% bovine serum albumin […] EDTA), then stained with Zombie Aqua viability dye for 20 minutes in room temperature (RT). This was followed by another wash then incubation with anti-HLA-DR APC-Cy7 anti-CD3-PECy7 and anti-CD14-AF700 for 30 minutes in RT prior acquisition in Gallios flow cytometer (Beckman Coulter, Brea, Calif., USA). Cell populations were manually gated in FlowJo LTT (Tree Star, San Diego, Calif., USA).
# Multiplex analysis of PBMC cell culture medium: Cell culture medium from human SLE and control PBMCs were thawed on ice before analyzed using Multiplex Inflammation assay (Merck, Millipore, Burlington, Mass., USA) according to following kit instructions.
# Having observed the protective effect of MDA-p45 IgG on atherosclerosis development in B6.lpr.ApoE−/− mice, we next investigated how this antibody affected the interaction of SLE PBMC with oxLDL. We incubated the cells with 10 μg/ml of fluorescently labelled oxLDL for 24 hours with and without addition of 10 μg/ml MDA-p45 IgG.
# [5] = Second Phase I (Ph1): single-dose bioavailability after subcutaneous and intravenous administration; conditions: for tmax: Median (min-max)
# [6] = Intravenous (Cohort A, Period 1), single dose 360 mg, Mean (SD)
# [7] = Subcutaneous (Cohort A, Period 2), single dose 360 mg, Mean (SD)
# [8] = Subcutaneous (Cohort B), single dose 360 mg, Mean (SD)
substance,measurement,setting,value
"orticumab: recombinant human IgG1 against MDA-modified peptide 45 of ApoB100; heavy chain SEQ ID NO: 316, light chain SEQ ID NO: 317",C ≥ 1 μg/mL,[1],Day 57
same,C ≥ 4 μg/mL,[1],Day 15
same,C ≥ 12 μg/mL,[1],Day 8
same,t1/2,"[1]; iv, 360 mg",20.3 (2.91) d
same,C ≥ 1 μg/mL,[1]; sc,Day 43
same,C ≥ 4 μg/mL,[1]; sc,Day 15
same,spleen monocytes or B cells,[2]; end of experiment,no differences
same,plasma levels of oxidized LDL and plasma cytokines,"[2]; mouse, in vivo",no differences
same,plaque area in aortic root,"[3]; 1 mg IP weekly at weeks 18, 19, 20, vs control antibody",significantly smaller plaques
same,apoptosis in plaque areas (number of TUNEL cells),[3]; 1 mg IP weekly x3,increased apoptosis
same,"lipid staining, flat preps of the aorta",[3]; 1 mg IP weekly x3,"reduction, although not significant"
same,CD68+ area,"[3]; 1 mg IP weekly x3, vs control antibody",reduced
same,cellular uptake of oxLDL,[4],increased cellular uptake
same,expression of CD14 and uptake of oxLDL in CD14+ APC,[4],increased
same,release of anti-inflammatory cytokine IL-1RA,[4],modest increase
same,AUC(0-inf),[5]; [6],412 (87.3) μg * d/mL
same,AUC(0-last),[5]; [6],380 (76.4) μg * d/mL
same,CL,[5]; [6],0.906 (0.168) L/d
same,Cmax,[5]; [6],84.3 (16.9) μg/mL
same,MRT,[5]; [6],16.9 (3.02) d
same,Vss,[5]; [6],15.2 (3.25) L
same,Vz,[5]; [6],26.3 (5.34) L
same,tmax,"[5]; Intravenous (Cohort A, Period 1), single dose 360 mg",0.04 (0.04-0.04) d
same,Cmax,"[5]; Ph1 trial, single dosing, 360 mg IV",84.3 µg/mL
same,Cmax,"[5]; Ph1 trial, single dosing, 360 mg SC",9.15 µg/mL
same,Cmax,"[5]; Ph1 trial, single dosing, 360 mg SC 70-90 days after IV dosing",15.1 µg/mL
same,AUC(0-last),[5]; [7],215 (60.0) μg * d/mL
same,Cmax,[5]; [7],15.1 (4.50) μg/mL
same,AUC(0-inf),"[5]; Subcutaneous (Cohort A, Period 2), single dose 360 mg, Mean (SD), corrected by subtracting AUCresidual from Period 1",236 (69.7) μg * d/mL
same,tmax,"[5]; Subcutaneous (Cohort A, Period 2), single dose 360 mg",3.99 (1.96-6.91) d
same,AUC(0-inf),[5]; [8],194 (45.6) μg * d/mL
same,AUC(0-last),[5]; [8],178 (39.6) μg * d/mL
same,Cmax,[5]; [8],9.15 (3.86) μg/mL
same,tmax,"[5]; Subcutaneous (Cohort B), single dose 360 mg",3.91 (1.00-4.02) d
same,t½,[5]; both routes of administration,about 20 days
same,increase of SC bioavailability by a prior IV dose,[5]; in vivo,approximately 9%
same,median tmax,[5]; single SC dose,96 h
same,Cmax of SC dose versus threshold,[5]; single SC dose 360 mg,falls within range of 4-12 μg/mL
same,maximum mean serum concentration,"[5]; single SC dose 360 mg, Cohort A, Period 2",15.1 µg/mL
same,maximum mean serum concentration,"[5]; single SC dose 360 mg, Cohort B",9.15 µg/mL
same,absolute bioavailability based on AUC(0-inf),[5]; single SC dose of 360 mg,47%
same,bioavailability,[5]; single SC dose of 360 mg after at least 70 days washout from an initial IV dose,56%
same,½-life,[5]; single dose 360 mg IV,33.5 days
same,½-life,[5]; single dose 360 mg SC,24.3 days and 24 days
same,"Cmax, max exposure IV vs SC",[5]; single dose at 360 mg (4.34 mg/kg),9.2 times
